In patent US20130210709A1 (ANCHOR THERAPEUTICS, published 2013):
Ends that are not written are not given here. * marks the point of attachment. Palmitoyl = CCCCCCCCCCCCCCCC(=O)*

B1: CXCR4 i4 loop compound 116 (peptide)
peptide: Palmitoyl-GAKFKTSAQHALTSVR-NH2
SMILES: CCCCCCCCCCCCCCCC(=O)NCC(=O)N[C@@H](C)C(=O)N[C@@H](CCCCN)C(=O)N[C@@H](Cc1ccccc1)C(=O)N[C@@H](CCCCN)C(=O)N[C@H](C(=O)N[C@@H](CO)C(=O)N[C@@H](C)C(=O)N[C@@H](CCC(N)=O)C(=O)N[C@@H](Cc1c[nH]cn1)C(=O)N[C@@H](C)C(=O)N[C@@H](CC(C)C)C(=O)N[C@H](C(=O)N[C@@H](CO)C(=O)N[C@H](C(=O)N[C@@H](CCCNC(=N)N)C(N)=O)C(C)C)[C@@H](C)O)[C@@H](C)O
B2: CXCR4 i4 loop compound 115 (peptide)
peptide: Palmitoyl-GAKFKTSAQHALTSVSRGSSLK-NH2
SMILES: CCCCCCCCCCCCCCCC(=O)NCC(=O)N[C@@H](C)C(=O)N[C@@H](CCCCN)C(=O)N[C@@H](Cc1ccccc1)C(=O)N[C@@H](CCCCN)C(=O)N[C@H](C(=O)N[C@@H](CO)C(=O)N[C@@H](C)C(=O)N[C@@H](CCC(N)=O)C(=O)N[C@@H](Cc1c[nH]cn1)C(=O)N[C@@H](C)C(=O)N[C@@H](CC(C)C)C(=O)N[C@H](C(=O)N[C@@H](CO)C(=O)N[C@H](C(=O)N[C@@H](CO)C(=O)N[C@@H](CCCNC(=N)N)C(=O)NCC(=O)N[C@@H](CO)C(=O)N[C@@H](CO)C(=O)N[C@@H](CC(C)C)C(=O)N[C@@H](CCCCN)C(N)=O)C(C)C)[C@@H](C)O)[C@@H](C)O
B3: CXCR4 i4 loop compound 114 (peptide)
peptide: Palmitoyl-GAKFKTSAQHALTSVSRGSSLKILSK-NH2
SMILES: CCCCCCCCCCCCCCCC(=O)NCC(=O)N[C@@H](C)C(=O)N[C@@H](CCCCN)C(=O)N[C@@H](Cc1ccccc1)C(=O)N[C@@H](CCCCN)C(=O)N[C@H](C(=O)N[C@@H](CO)C(=O)N[C@@H](C)C(=O)N[C@@H](CCC(N)=O)C(=O)N[C@@H](Cc1c[nH]cn1)C(=O)N[C@@H](C)C(=O)N[C@@H](CC(C)C)C(=O)N[C@H](C(=O)N[C@@H](CO)C(=O)N[C@H](C(=O)N[C@@H](CO)C(=O)N[C@@H](CCCNC(=N)N)C(=O)NCC(=O)N[C@@H](CO)C(=O)N[C@@H](CO)C(=O)N[C@@H](CC(C)C)C(=O)N[C@@H](CCCCN)C(=O)N[C@H](C(=O)N[C@@H](CC(C)C)C(=O)N[C@@H](CO)C(=O)N[C@@H](CCCCN)C(N)=O)[C@@H](C)CC)C(C)C)[C@@H](C)O)[C@@H](C)O
B4: CXCR4 i4 loop compound 112 (peptide)
peptide: Palmitoyl-GAKFKTSAQHALTSVSRGSSLKILSGGK-NH2
SMILES: CCCCCCCCCCCCCCCC(=O)NCC(=O)N[C@@H](C)C(=O)N[C@@H](CCCCN)C(=O)N[C@@H](Cc1ccccc1)C(=O)N[C@@H](CCCCN)C(=O)N[C@H](C(=O)N[C@@H](CO)C(=O)N[C@@H](C)C(=O)N[C@@H](CCC(N)=O)C(=O)N[C@@H](Cc1c[nH]cn1)C(=O)N[C@@H](C)C(=O)N[C@@H](CC(C)C)C(=O)N[C@H](C(=O)N[C@@H](CO)C(=O)N[C@H](C(=O)N[C@@H](CO)C(=O)N[C@@H](CCCNC(=N)N)C(=O)NCC(=O)N[C@@H](CO)C(=O)N[C@@H](CO)C(=O)N[C@@H](CC(C)C)C(=O)N[C@@H](CCCCN)C(=O)N[C@H](C(=O)N[C@@H](CC(C)C)C(=O)N[C@@H](CO)C(=O)NCC(=O)NCC(=O)N[C@@H](CCCCN)C(N)=O)[C@@H](C)CC)C(C)C)[C@@H](C)O)[C@@H](C)O
B5: CXCR4 i4 loop compound 110 (peptide)
peptide: Palmitoyl-GAKFKTSAQHALTSVSRGSSLKILSKGKRGGSCFH-NH2
SMILES: CCCCCCCCCCCCCCCC(=O)NCC(=O)N[C@@H](C)C(=O)N[C@@H](CCCCN)C(=O)N[C@@H](Cc1ccccc1)C(=O)N[C@@H](CCCCN)C(=O)N[C@H](C(=O)N[C@@H](CO)C(=O)N[C@@H](C)C(=O)N[C@@H](CCC(N)=O)C(=O)N[C@@H](Cc1c[nH]cn1)C(=O)N[C@@H](C)C(=O)N[C@@H](CC(C)C)C(=O)N[C@H](C(=O)N[C@@H](CO)C(=O)N[C@H](C(=O)N[C@@H](CO)C(=O)N[C@@H](CCCNC(=N)N)C(=O)NCC(=O)N[C@@H](CO)C(=O)N[C@@H](CO)C(=O)N[C@@H](CC(C)C)C(=O)N[C@@H](CCCCN)C(=O)N[C@H](C(=O)N[C@@H](CC(C)C)C(=O)N[C@@H](CO)C(=O)N[C@@H](CCCCN)C(=O)NCC(=O)N[C@@H](CCCCN)C(=O)N[C@@H](CCCNC(=N)N)C(=O)NCC(=O)NCC(=O)N[C@@H](CO)C(=O)N[C@@H](CS)C(=O)N[C@@H](Cc1ccccc1)C(=O)N[C@@H](Cc1c[nH]cn1)C(N)=O)[C@@H](C)CC)C(C)C)[C@@H](C)O)[C@@H](C)O
B6: CXCR4 i4 loop compound 109 (peptide)
peptide: Palmitoyl-GAKFKTSAQHALTSVSRGSSLKILSKGKRGGHSSVST-NH2
SMILES: CCCCCCCCCCCCCCCC(=O)NCC(=O)N[C@@H](C)C(=O)N[C@@H](CCCCN)C(=O)N[C@@H](Cc1ccccc1)C(=O)N[C@@H](CCCCN)C(=O)N[C@H](C(=O)N[C@@H](CO)C(=O)N[C@@H](C)C(=O)N[C@@H](CCC(N)=O)C(=O)N[C@@H](Cc1c[nH]cn1)C(=O)N[C@@H](C)C(=O)N[C@@H](CC(C)C)C(=O)N[C@H](C(=O)N[C@@H](CO)C(=O)N[C@H](C(=O)N[C@@H](CO)C(=O)N[C@@H](CCCNC(=N)N)C(=O)NCC(=O)N[C@@H](CO)C(=O)N[C@@H](CO)C(=O)N[C@@H](CC(C)C)C(=O)N[C@@H](CCCCN)C(=O)N[C@H](C(=O)N[C@@H](CC(C)C)C(=O)N[C@@H](CO)C(=O)N[C@@H](CCCCN)C(=O)NCC(=O)N[C@@H](CCCCN)C(=O)N[C@@H](CCCNC(=N)N)C(=O)NCC(=O)NCC(=O)N[C@@H](Cc1c[nH]cn1)C(=O)N[C@@H](CO)C(=O)N[C@@H](CO)C(=O)N[C@H](C(=O)N[C@@H](CO)C(=O)N[C@H](C(N)=O)[C@@H](C)O)C(C)C)[C@@H](C)CC)C(C)C)[C@@H](C)O)[C@@H](C)O
B7: CXCR4 i4 loop compound 107 (peptide)
peptide: GAKFKTSAQHALTSVSRGSSLKILSKGKRGGHSSVST-NH2
modifications: not fully specified (N-terminus); also: dual lipid, backbone lipid not given here
B8: Compound No. 38 (Pal-MGYQKKLRSMTDKYRL-amide) (peptide)
peptide: Palmitoyl-MGYQKKLRSMTDKYRL-NH2
SMILES: CCCCCCCCCCCCCCCC(=O)N[C@@H](CCSC)C(=O)NCC(=O)N[C@@H](Cc1ccc(O)cc1)C(=O)N[C@@H](CCC(N)=O)C(=O)N[C@@H](CCCCN)C(=O)N[C@@H](CCCCN)C(=O)N[C@@H](CC(C)C)C(=O)N[C@@H](CCCNC(=N)N)C(=O)N[C@@H](CO)C(=O)N[C@@H](CCSC)C(=O)N[C@H](C(=O)N[C@@H](CC(=O)O)C(=O)N[C@@H](CCCCN)C(=O)N[C@@H](Cc1ccc(O)cc1)C(=O)N[C@@H](CCCNC(=N)N)C(=O)N[C@@H](CC(C)C)C(N)=O)[C@@H](C)O
B9: CXCR4 i2 loop compound 83 (peptide)
peptide: Palmitoyl-HATNSQRPRKLLAEKV-NH2
SMILES: CCCCCCCCCCCCCCCC(=O)N[C@@H](Cc1c[nH]cn1)C(=O)N[C@@H](C)C(=O)N[C@H](C(=O)N[C@@H](CC(N)=O)C(=O)N[C@@H](CO)C(=O)N[C@@H](CCC(N)=O)C(=O)N[C@@H](CCCNC(=N)N)C(=O)N1CCC[C@H]1C(=O)N[C@@H](CCCNC(=N)N)C(=O)N[C@@H](CCCCN)C(=O)N[C@@H](CC(C)C)C(=O)N[C@@H](CC(C)C)C(=O)N[C@@H](C)C(=O)N[C@@H](CCC(=O)O)C(=O)N[C@@H](CCCCN)C(=O)N[C@H](C(N)=O)C(C)C)[C@@H](C)O
B10: CXCR4 i2 loop compound 82 (peptide)
peptide: Palmitoyl-HATNSQRPRKLLAEK-NH2
SMILES: CCCCCCCCCCCCCCCC(=O)N[C@@H](Cc1c[nH]cn1)C(=O)N[C@@H](C)C(=O)N[C@H](C(=O)N[C@@H](CC(N)=O)C(=O)N[C@@H](CO)C(=O)N[C@@H](CCC(N)=O)C(=O)N[C@@H](CCCNC(=N)N)C(=O)N1CCC[C@H]1C(=O)N[C@@H](CCCNC(=N)N)C(=O)N[C@@H](CCCCN)C(=O)N[C@@H](CC(C)C)C(=O)N[C@@H](CC(C)C)C(=O)N[C@@H](C)C(=O)N[C@@H](CCC(=O)O)C(=O)N[C@@H](CCCCN)C(N)=O)[C@@H](C)O
B11: CXCR4 i2 loop compound 81 (peptide)
peptide: Palmitoyl-HATNSQRPRKLLAE-NH2
SMILES: CCCCCCCCCCCCCCCC(=O)N[C@@H](Cc1c[nH]cn1)C(=O)N[C@@H](C)C(=O)N[C@H](C(=O)N[C@@H](CC(N)=O)C(=O)N[C@@H](CO)C(=O)N[C@@H](CCC(N)=O)C(=O)N[C@@H](CCCNC(=N)N)C(=O)N1CCC[C@H]1C(=O)N[C@@H](CCCNC(=N)N)C(=O)N[C@@H](CCCCN)C(=O)N[C@@H](CC(C)C)C(=O)N[C@@H](CC(C)C)C(=O)N[C@@H](C)C(=O)N[C@@H](CCC(=O)O)C(N)=O)[C@@H](C)O

These binders were tested against T1, CXCR4 receptor (human, UniProt P61073 1-352) (assay: cell-based or functional assay).
T1 sequence (P61073 whole entry): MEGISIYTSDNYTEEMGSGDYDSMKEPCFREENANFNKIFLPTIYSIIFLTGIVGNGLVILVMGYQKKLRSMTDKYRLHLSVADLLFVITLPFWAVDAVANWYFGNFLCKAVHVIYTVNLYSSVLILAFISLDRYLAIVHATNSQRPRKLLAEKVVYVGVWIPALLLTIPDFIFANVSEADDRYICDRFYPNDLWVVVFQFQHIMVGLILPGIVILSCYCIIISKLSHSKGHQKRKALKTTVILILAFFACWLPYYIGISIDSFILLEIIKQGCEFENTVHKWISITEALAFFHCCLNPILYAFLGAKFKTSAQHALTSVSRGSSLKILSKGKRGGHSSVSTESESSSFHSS

First: B1
Second: B2
The “AUC (% of Vehicle), CHTX, CEM, 1.0 uM” value of the first is lower: 65.3 % of Vehicle for the first, 77.5 % of Vehicle for the second.

First: B3
Second: B4
The “AUC (% of Vehicle), CHTX, CEM, 1.0 uM” value of the first is lower: 34.2 % of Vehicle for the first, 48.9 % of Vehicle for the second.

Compared with B5, B6 is higher in “AUC (% of Vehicle), CHTX, CEM, 1.0 uM” value: 41 % of Vehicle for the first, 49.3 % of Vehicle for the second.

Compared with GAKFKTSAQHALTSVSRGSSLKILSKGKRG-NH2 (not fully specified (N-terminus)) [CXCR4 i4 loop compound 108], B7 is lower in “AUC (% of Vehicle), CHTX, CEM, 1.0 uM” value: 89.5 % of Vehicle for the first, 57.3 % of Vehicle for the second.

First: B1
Second: B2
The “Max (% of Vehicle), CHTX, CEM, 1.0 uM” value of the first is lower: 80.5 % of Vehicle for the first, 92.1 % of Vehicle for the second.

First: B3
Second: B4
The “Max (% of Vehicle), CHTX, CEM, 1.0 uM” value of the first is higher: 63.1 % of Vehicle for the first, 54.7 % of Vehicle for the second.

First: B5
Second: B6
The “Max (% of Vehicle), CHTX, CEM, 1.0 uM” value of the first is lower: 42.1 % of Vehicle for the first, 49.8 % of Vehicle for the second.

Compared with GAKFKTSAQHALTSVSRGSSLKILSKGKRG-NH2 (not fully specified (N-terminus)) [CXCR4 i4 loop compound 108], B7 is lower in “Max (% of Vehicle), CHTX, CEM, 1.0 uM” value: 83.9 % of Vehicle for the first, 49.5 % of Vehicle for the second.

B1 and B2 are the same in “Peak Ratio, CHTX, CEM, 1.0 uM” value: 1 for the first, 1 for the second.

First: B3
Second: B4
The “Peak Ratio, CHTX, CEM, 1.0 uM” value of the first is higher: 1 for the first, 0.2 for the second.

First: B5
Second: B6
The “Peak Ratio, CHTX, CEM, 1.0 uM” value of the first is higher: 1 for the first, 0.04 for the second.

GAKFKTSAQHALTSVSRGSSLKILSKGKRG-NH2 (not fully specified (N-terminus)) [CXCR4 i4 loop compound 108] and B7 are the same in “Peak Ratio, CHTX, CEM, 1.0 uM” value: 5 for the first, 5 for the second.

Target: T1, CXCR4 receptor
Assay: cell-based or functional assay
Remark: another data set of the same source

For B8, the “IC50 (nM), calcium flux, CCRF-CEM” value was 98 nM.

Target: T1, CXCR4 receptor
Assay: cell-based or functional assay
Remark: another data set of the same source

With B8 the “AUC (% of), CHTX, SUP B-15, 1.0 uM” value was 32.4%.

With B8 the “Max (% of), CHTX, SUP B-15, 1.0 uM” value was 49.6%.

With B8 the “Peak Ratio, CHTX, CEM, 1.0 uM” value was 0.2.

B8 was tested, and the “Peak Ratio, CHTX, SUP B-15, 1.0 uM” value was 0.2.

Target: T1, CXCR4 receptor
Assay: cell-based or functional assay
Remark: another data set of the same source

First: B9
Second: B10
The “AUC (% of vehicle), chemotaxis, SUPB-15, 1.0 uM” value of the first is higher: 126 % of vehicle for the first, 125 % of vehicle for the second.

In the case of B11, the “AUC (% of vehicle), chemotaxis, SUPB-15, 1.0 uM” value is reported as 79.8 % of vehicle.

Compared with B9, B10 is higher in “Max (% of vehicle), chemotaxis, SUPB-15, 1.0 uM” value: 110 % of vehicle for the first, 126 % of vehicle for the second.

With B11 the “Max (% of vehicle), chemotaxis, SUPB-15, 1.0 uM” value was 76.5 % of vehicle.

Compared with B9, B10 is lower in “Peak Ratio, chemotaxis, SUPB-15, 1.0 uM” value: 1 for the first, 0.2 for the second.

For B11, the “Peak Ratio, chemotaxis, SUPB-15, 1.0 uM” value was 0.2.
